Source: publication PMC11148020, “PPIA dictates NRF2 stability to promote lung cancer progression” (Nature Communications, 2024)

Target: T1, Recombinant PPIA protein (PPIA WT) (human, UniProt P62937 1-165, 15N-labeled in the NMR experiment)
T1 construct: peptidylprolyl isomerase A (PPIA, CypA), called full-length PPIA for the co-crystal; free in solution for crystal and NMR; also called full-length PPIA; 15N-labeled PPIA; source: E. coli BL21 (DE3), purified (Ni-NTA; for crystallization also Superdex 75 gel filtration)
T1 sequence (P62937 whole entry): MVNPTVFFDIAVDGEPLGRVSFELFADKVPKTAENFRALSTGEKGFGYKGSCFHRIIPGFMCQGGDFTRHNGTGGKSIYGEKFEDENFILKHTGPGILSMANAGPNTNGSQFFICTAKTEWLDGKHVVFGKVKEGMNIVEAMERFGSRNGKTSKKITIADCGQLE
Assay: crystal structure; PPIA (50 mg/mL) incubated with PBM peptide (2 mM) at 4 °C for 2 h; hanging-drop co-crystallization, 25 mM Hepes, 25% PEG 3350, 5 mM TCEP, pH 7.5; 1.81 Å
Settings: both partners purified

B1: NRF2 fragment PPIA-Binding Motif (PBM) peptide (peptide)
peptide: VAQVAPVD
notes: NRF2 residues 169-176, in the linker between the Neh4 and Neh5 domains; also called NRF2-PBM; source: synthetic peptide
- binding result: binds
